Experiments:
[1] = biological target: T1, human recombinant PD-L1 protein (Homo sapiens, UniProt Q9NZQ7); test: Radio-SDS-PAGE molecular recognition by PD-L1 protein; type: binding; conditions: radiopeptide (1 mg/mL) incubated with PD-L1 (200 µg/mL) 30 min at 37 °C; 15% SDS-PAGE, radio-TLC scan
T1 construct: purchased FineTest P6857
Procedure: SDS-PAGE gel electrophoresis was performed. Radioactivity distribution was determined using a radio-TLC scanner (Mini-Gita, 60–150 keV, BGO-Crystal, window 25 × 2 mm, thickness 5 mm, resolution optimized for Tc-99m; RayTest, Munich, Germany) to detect [^99mTc]Tc-iPD-L1 and [^99mTc]Tc-WL12 binding to PD-L1 protein.
Briefly, ^99mTc-labeled WL12 and iPD-L1 solutions (100 µL) (1 mg/mL peptide) were incubated with human recombinant PD-L1 protein (100 µL) (200 µg/mL; FineTest; Cat: P6857) (radiopeptide-PD-L1 interaction) or human integrin αVβ3 protein (100 µL) (negative control; 200 µg/mL) (Chemicom, Merck; Burlington, MA, USA) (radiopeptide-integrin interaction) for 30 min at 37 °C, after which the samples were diluted with Laemmli sample buffer (containing 10% SDS, Tris-Cl 125 mM, pH = 6.8, 12.5% glycerol and 0.005% bromophenol blue after dye) to give final protein concentrations of 25 µg/mL. […] Finally, the radioactivity distribution on the gels was scanned using a radio-TLC detector to determine the percentage of [^99mTc]Tc-iPD-L1 or [^99mTc]Tc-WL12 radioactivity associated with proteins.
In vitro-specific recognition of [^99mTc]Tc-iPD-L1 and [^99mTc]Tc-WL12 by the PD-L1 protein was performed using a combination of radio-TLC and SDS-PAGE (radio-SDS-PAGE). […] Therefore, the radioactivity associated with free peptides is in the front of the gel plate (around 60–70 mm). […]

Serum protein binding = type: in vitro ADME; conditions: human serum (diluted 5x), 37 °C, size-exclusion radio-HPLC, n = 3
Procedure: (§1) The stability of [^99mTc]Tc-iPD-L1 and [^99mTc]Tc-WL12 was evaluated by diluting the samples in human serum (5x). The radiopharmaceuticals (n = 3) were heated at 37 °C and analyzed at 0.5, 3, and 24 h for radiochemical purity by size-exclusion radio-HPLC (ProteinPak 300SW, Waters Corporation, Milford, CT, USA).
(§2) The radioactivity from [^99mTc]Tc-iPD-L1 bound to serum proteins was 1.3 ± 0.8% at 30 min, 3.2 ± 1.3% at 3 h, and 7.6 ± 1.9% at 24 h. High radiochemical stability (>90% at 24 h) was also observed. In the case of [^99mTc]Tc-WL12, protein binding was 1.0 ± 0.4% at 30 min, 3.3 ± 0.9% at 3 h, and 6.0 ± 1.3% at 24 h, with a radiochemical purity of >90% at 24 h. Therefore, there was no significant difference […] in protein binding and serum stability between the radiotracers.

[2] = test system: HCC827 lung cancer tumors; test: Biodistribution in mice bearing HCC827 tumors; type: in vivo, mouse; conditions: mean over 1, 3 and 24 h
Procedure: All animal procedures were performed following the Institutional Animal Care and Use Committee requirements under an approved protocol (No. 09-2018-2022) and the Ethical Regulations for the Handling of Laboratory Animals (NOM-062-ZOO-1999). Male Nu/Nu (CINVESTAV, I.PN., Mexico City, Mexico) mice, 6–8 weeks of age, were maintained in an aseptic barrier environment. Mice were inoculated by subcutaneous injection of 1 × 10^6 HCC827 cells/0.1 mL PBS into the upper back. Injection sites were monitored periodically for tumor progression. On day ten after tumor cell inoculation, animals were injected with 18.5 MBq (50 µL) of [^99mTc]Tc-iPD-L1 or 18.5 MBq (50 µL) of [^99mTc]Tc-WL12 by tail vein injection. The animals were sacrificed at 1, 3, and 24 h (n = 3). Kidneys, lungs, heart, liver, spleen, pancreas, small intestine, stomach, muscle, and blood and tumor samples were dissected. Radioactivity was determined in a sodium iodide detector. The results were stated as % injected dose/g.
After 24 h, the activity in tumors was 3.21 ± 0.45 %ID/g ([^99mTc]Tc-WL12) and 5.65 ± 0.98 %ID/g ([^99mTc]Tc-iPD-L1). […] This behavior is related to the higher lipophilicity of [^99mTc]Tc-iPD-L1 compared to [^99mTc]Tc-WL12.

Stability in human serum = type: in vitro ADME; conditions: human serum (diluted 5x), 37 °C, n = 3
Procedure: as §1, §2

T1 sequence (Q9NZQ7 19-290): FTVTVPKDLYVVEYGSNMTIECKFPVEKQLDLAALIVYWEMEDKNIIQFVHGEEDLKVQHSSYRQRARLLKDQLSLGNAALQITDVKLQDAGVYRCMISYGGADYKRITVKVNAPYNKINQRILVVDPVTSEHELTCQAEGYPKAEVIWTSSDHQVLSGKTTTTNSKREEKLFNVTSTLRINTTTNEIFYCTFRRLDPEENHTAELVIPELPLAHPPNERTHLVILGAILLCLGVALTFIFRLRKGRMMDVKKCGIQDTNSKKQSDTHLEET

Question: Which results are given for `CCCC[C@H]1C(=O)N(C)[C@@H](CCCC)C(=O)N[C@@H](CCCNC(=O)c2ccc(NN)nc2)C(=O)N[C@H](C(=O)NCC(N)=O)CSCC(=O)N[C@@H](Cc2ccc(O)cc2)C(=O)N(C)[C@@H](C)C(=O)N[C@@H](CC(N)=O)C(=O)N2CCC[C@H]2C(=O)N[C@@H](Cc2c[nH]cn2)C(=O)N[C@@H](CC(C)C)C(=O)N2C[C@H](O)C[C@H]2C(=O)N[C@@H](Cc2c[nH]c3ccccc23)C(=O)N[C@@H](CO)C(=O)N[C@@H](Cc2cn(C)c3ccccc23)C(=O)N1C` [[^99mTc]Tc-WL12, metal not drawn]?
Answer: radioactivity detected at the distance associated with the PD-L1 protein [1]: 14%; radioactivity bound to serum proteins at 30 min (Serum protein binding; 30 min): 1.0 ± 0.4%; radioactivity bound to serum proteins at 3 h (Serum protein binding; 3 h): 3.3 ± 0.9%; radioactivity bound to serum proteins at 24 h (Serum protein binding; 24 h): 6.0 ± 1.3%; mean percentage of tumor uptake over time (two-way ANOVA) [2]: 6.617; stability in human serum (Stability in human serum; 30 min, 3 h and 24 h, size-exclusion radio-HPLC): remained stable; remaining at 24 h (Stability in human serum; 24 h, size-exclusion radio-HPLC (ProteinPak 300SW), read-out: radiochemical stability / radiochemical purity in human serum at 24 h): > 90%

Source: paper PMC10747430, “^99mTc-Labeled Cyclic Peptide Targeting PD-L1 as a Novel Nuclear Imaging Probe” (Pharmaceutics, 2023)
